Substrate in this series: CC(=O)N[C@@H](Cc1ccc(O)cc1)C(=O)N[C@H](C(=O)N[C@@H](C)C(=O)N[C@@H](CC(=O)O)C(=O)Nc1ccc2c(C)cc(=O)oc2c1)C(C)C
As to the kind of experiment: ICE inhibition, Ki, fluorescence assay with Ac-Tyr-Val-Ala-Asp-AMC. Type of series: biochemical. To be noted: other: substrate of ICE, HGDE buffer. How it is done:
Substrate hydrolysis is monitored for 300 seconds by observing the fluorescence of released AMC using excitation at 380 nm and emission at 460 nm. Mean rates of substrate hydrolysis are evaluated by linear-regression analysis of the fluorescence vs time traces. […] ICE Colorimetric Dose-Response (IC50) Assay

B1: ICE (interleukin-1β converting enzyme) (Homo sapiens) (protein)
chain 1: NPAMPTSSGSEGNVKLCSLEEAQRIWKQKSAEIYPIMDKSSRTRLALIICNEEFDSIPRRTGAEVDITGMTMLLQNLGYSVDVKKNLTASDMTTELEAFAHRPEHKTSDSTFLVFMSHGIREGICGKKHSEQVPDILQLNAIFNMLNTKNCPSLKDKPKVIIIQACRGDSPGVVWFKD
chain 2: AIKKAHIEKDFIAFCSSTPDNVSWRHPTMGSVFIGRLIEHMQEYACSCDVEEIFRKVRFSFEQPDGRAQMPTTERVTLTRCFYLFPGH
As a reminder, the Km is the concentration of substrate that gives half-maximal velocity. Regarding B1, the Km amounted to 15 µM.

The record behind these values is US5919790A, “Hydroxamate inhibitors of interleukin-1β converting enzyme” (Warner-Lambert Company, priority 1997, dated 1999).
